B1: Ab21 (antibody, human IgG1, kappa, N297A, V domains shown)
VH: QSVEESGGRLVTPGTPLTLTCTVSGFSLSSYAMNWVRQAPGKGLEWIGAIRSSGATFFASWVNGRFTISKTSTTVDLKITSPTPEDTATYFCARDTNDGWYINRLDLWGPGTLVTVSS
VL: AAVLTQTPSPVSAAVGGTVSISCQSSKSVYSNYLSWFQQKPGQPPKFLIYKASTLASGVPSRFKGSGSGTQFTLTISDVQCDDAATYYCAGGDTNISDNAFGGGTEVVVKR
notes: also called antibody Ab21
B2: Ab22 (antibody, human IgG1, kappa, N297A, V domains shown)
VH: EVQLVESGGGLVQPGGSLRLSCAASGFSLSSYAMNWVRQAPGKGLEWIGAIRSSGATFFASSVNGRFTISRDNSKNTVYLQMNSLRAEDTAVYYCARDTNDGWYINRLDLWGQGTLVTVSS
VL: AVLTQSPSTLSASVGDRVTITCQSSKSVYSNYLSWFQQKPGKAPKFLIYKASTLASGVPSRFSGSGSGTEFTLTISSLQPDDFATYYCAGGDTNIADNAFGGGTKVEIKR
notes: also called antibody Ab22
B3: Ab23 (antibody, human IgG1, kappa, N297A, V domains shown)
VH: QSLEESGGDLVKPGASLTLTCKASGFSFSSGYYMCWVRQAPGKGLEWIACIYAGSGGSTFFANWAKGRFTISKTSSTTVTLQMTSLTAADTATYFCARDGGYAGYGYAFFNLWGPGTLVTVSS
VL: DVVMTQTPASVSEPVGGTVTIKCQASERIYSGLAWYQQKPGQPPKLLIYGASTLASGVPSRFKGSGSGTDFTLTISDLECDDAAIYYCQCTYYGSSYPNVFGGGTEVVVKR
notes: also called antibody Ab23
B4: Ab24 (antibody, human IgG1, kappa, N297A, V domains shown)
VH: QSLEESGGDLVKPGASLTLTCKASGFSFSSGYYMCWVRQAPGKGLEWIACIYAGSGGSTFFANWAKGRFTISKTSSTTVTLQMTSLTAADTATYFCARDGGYAGYGYAFFNLWGPGTLVTVSS
VL: DVVMTQTPASVSEPVGGTVTIKCQASERIYSGLAWYQQKPGQPPKLLIYGASTLASGVPSRFKGSGSGTDFTLTISDLECDDAAIYYCQATYYGSSYPNVFGGGTEVVVKR
notes: also called antibody Ab24
B5: Ab20 (antibody, human IgG1, kappa, N297A, V domains shown)
VH: EVQLVESGGGLVQPGGSLRLSCAASGIDLSSYAMGWVRQAPGKGLEYIGIIVSYGPTYYASWAKGRFTISRDNSKSTVYLQMNSLRAEDTATYFCARDLDAQSSGYYGAFNIWGQGTLVTVSS
VL: DIQMTQSPSTLSASVGDRVTITCQASQSISTALAWYQQKPGKAPKLLIYAASPLASGVPSRFSGSGSGTEFTLTISSLQPDDFATYYCQSYYGSSNIAFGGGTKVEIKR
notes: also called antibody Ab20
B6: Ab3 (antibody, human IgG1, kappa, N297A, V domains shown)
VH: QSVEESGGRLVTPGGSLTLTCTASGFSLSSYYMSWVRQAPGKGLEWIGIIYPSGSTYYASWAKGRFTISKTSTTVDLKITSPTVEDTATYFCARGGAYATLNLWGPGTLVTVSS
VL: AVLTQTPSPVSAAVGGTVTISCQSSQSVYHNNLLSWYQQKPGQPPKLLIYDASKLTSGVSSRFSGSGSGTQFTLTISGVQCDDAATYYCLGGYDDDADNGFGGGTEVVVKR
notes: also called antibody Ab3

The binders below were run against T1, human Proprotein Convertase Subtilisin-like/Kexin type 9 (human, UniProt Q8NBP7 31-692, limits assumed) (assay: SPR (ProteOn XPR36), biotinylated antibody on neutravidin chip, human PCSK9 as analyte, 1:1 fit, mean of 4 densities).
T1 construct: Biotinylated in the ELISAs; unlabelled analyte in BLI and SPR; also called human PCSK9; PCSK9
T1 sequence (Q8NBP7 31-692 limits assumed): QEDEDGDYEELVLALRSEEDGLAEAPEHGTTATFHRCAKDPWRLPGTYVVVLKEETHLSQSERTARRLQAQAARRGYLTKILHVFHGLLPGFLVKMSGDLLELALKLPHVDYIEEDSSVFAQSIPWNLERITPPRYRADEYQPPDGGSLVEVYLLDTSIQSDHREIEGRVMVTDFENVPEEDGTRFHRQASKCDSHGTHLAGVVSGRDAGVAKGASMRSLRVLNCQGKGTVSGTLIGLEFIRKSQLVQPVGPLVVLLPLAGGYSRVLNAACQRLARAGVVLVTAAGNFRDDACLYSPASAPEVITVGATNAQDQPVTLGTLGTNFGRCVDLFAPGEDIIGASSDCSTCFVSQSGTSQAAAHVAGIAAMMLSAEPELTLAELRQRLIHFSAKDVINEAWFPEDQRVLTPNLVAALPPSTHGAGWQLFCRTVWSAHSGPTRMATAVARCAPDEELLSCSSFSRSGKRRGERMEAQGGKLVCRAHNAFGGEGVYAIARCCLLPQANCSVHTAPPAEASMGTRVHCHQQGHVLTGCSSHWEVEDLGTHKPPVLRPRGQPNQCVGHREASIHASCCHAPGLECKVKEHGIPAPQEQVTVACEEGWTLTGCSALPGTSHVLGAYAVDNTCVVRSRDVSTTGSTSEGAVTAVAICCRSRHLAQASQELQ
Method: Binding affinities of monoclonal antibodies for PCSK9 were estimated using Surface Plasmon Resonance (SPR) on the ProteOn XPR36 (Bio-Rad). Biotinylated antibody was immobilized at progressively increasing densities to the surface of Neutravidin (NLC) Chips. A dilution series of human PCSK9 prepared in 1×HBS-EP+Buffer (10 mM Hepes; 150 mM NaCl; 3 mM EDTA, 0.05% Polysorbate 20; pH 7.6 at 25° C.) purchased from Thermo Scientific and supplemented with 0.2 mg/mL Bovine Serum Albumin (BSA) from Jackson ImmunoResearch and 0.005% sodium azide from VWR was used to query the antibodies. At our chosen concentrations of antigen (˜0.08 μg/mL-6.7 μg/mL) association times of 4 minutes and dissociation times of 30-120 minutes were used with the ProteOn Manager Software (v3.1.0.6, Bio-Rad) to group and fit data using a 1:1 Langmuir binding model. Surfaces were regenerated between analyte queries and after binding antibody to the surface using 10 mM Glycine pH 2.0. Data across 4 different densities were averaged and a single KD and standard propagation of error calculated for each antibody.

Question: For B1, which Kd is on record?
Answer: 0.61 nM

Question: And the koff?
Answer: 0.000354 s⁻¹

Question: And the kon?
Answer: 580000 M⁻¹ s⁻¹

Question: What does the source list for B2?
Answer: Kd: 0.49 nM; koff: 0.000259 s⁻¹; kon: 529000 M⁻¹ s⁻¹

Question: Which results are given for B3?
Answer: Kd: 0.04 nM; koff: 3.71e-05 s⁻¹; kon: 928000 M⁻¹ s⁻¹

Question: B4 was tested. Which Kd did it give?
Answer: 0.09 nM

Question: And the koff?
Answer: 6.16e-05 s⁻¹

Question: And the kon?
Answer: 684000 M⁻¹ s⁻¹

These binders were tested against T1, human Proprotein Convertase … (assay: BLI (Octet QK), biotinylated antibody on streptavidin sensors, human PCSK9 in solution, 1:1 fit).
Method: Binding affinities of monoclonal antibodies for PCSK9 were estimated using Bio-Layer Interferometry (BLI) on the Octet QK (ForteBio). Biotinylated antibody was immobilized at different densities to the surface of Streptavidin (SA) Biosensors. A dilution series of human PCSK9 prepared in 1× Kinetics Buffer (NaCl 0.0138 M; KCl 0.00027 M; 0.1 mg/mL BSA, 0.002% Tween and 0.005% Sodium Azide; pH 7.4, at 25° C.) purchased from the manufacturer (ForteBio) was used to query the antibodies. At our chosen concentrations of antigen (˜0.25 μg/mL-2 μg/mL) association times of 15 minutes and dissociation times of 25 minutes were used with the Octet Analysis Software (v6.4, ForteBio), to globally fit data using a 1:1 Langmuir binding model.

Question: Which Kd does the source give for B5 here?
Answer: 0.6 nM

Question: What about the koff of the same binder?
Answer: 6.63e-05 s⁻¹

Question: And the kon?
Answer: 108000 M⁻¹ s⁻¹

Question: B6 was tested. Which Kd did it give?
Answer: 5.87 nM

Question: And the koff?
Answer: 0.000554 s⁻¹

Question: And the kon?
Answer: 94400 M⁻¹ s⁻¹

Source: patent US20130302399A1 (ALDERBIO, published 2013)
